Results on 1 molecule are retold here after PMC11018839, “ANKFY1 bridges ATG2A-mediated lipid transfer from endosomes to phagophores” (Cell Discovery, 2024).

The target of the experiment is T1, purified Flag-ATG2A-His protein (human, UniProt Q2TAZ0 1-1938).
T1 construct: ATG2A, human; Flag-ATG2A-His with a C-terminal His tag; not shown: His tag, C-terminal, kept
The experiment can be described thus: liposome co-flotation; 100 nm liposomes with 5% PI3P (2% Rhod-PE, 30% POPE, 63% DOPC), 1 mM lipids, incubated with 4.28 uM ANKFY1, 0.5 uM ATG2A or both at 37 °C for 1 h; 50 mM HEPES pH 8.0, 300 mM NaCl, 1 mM TCEP; floated on a histodenz gradient; topmost fraction analysed by SDS-PAGE and western blot. As to conditions: both partners purified.

T1 sequence (Q2TAZ0 whole entry): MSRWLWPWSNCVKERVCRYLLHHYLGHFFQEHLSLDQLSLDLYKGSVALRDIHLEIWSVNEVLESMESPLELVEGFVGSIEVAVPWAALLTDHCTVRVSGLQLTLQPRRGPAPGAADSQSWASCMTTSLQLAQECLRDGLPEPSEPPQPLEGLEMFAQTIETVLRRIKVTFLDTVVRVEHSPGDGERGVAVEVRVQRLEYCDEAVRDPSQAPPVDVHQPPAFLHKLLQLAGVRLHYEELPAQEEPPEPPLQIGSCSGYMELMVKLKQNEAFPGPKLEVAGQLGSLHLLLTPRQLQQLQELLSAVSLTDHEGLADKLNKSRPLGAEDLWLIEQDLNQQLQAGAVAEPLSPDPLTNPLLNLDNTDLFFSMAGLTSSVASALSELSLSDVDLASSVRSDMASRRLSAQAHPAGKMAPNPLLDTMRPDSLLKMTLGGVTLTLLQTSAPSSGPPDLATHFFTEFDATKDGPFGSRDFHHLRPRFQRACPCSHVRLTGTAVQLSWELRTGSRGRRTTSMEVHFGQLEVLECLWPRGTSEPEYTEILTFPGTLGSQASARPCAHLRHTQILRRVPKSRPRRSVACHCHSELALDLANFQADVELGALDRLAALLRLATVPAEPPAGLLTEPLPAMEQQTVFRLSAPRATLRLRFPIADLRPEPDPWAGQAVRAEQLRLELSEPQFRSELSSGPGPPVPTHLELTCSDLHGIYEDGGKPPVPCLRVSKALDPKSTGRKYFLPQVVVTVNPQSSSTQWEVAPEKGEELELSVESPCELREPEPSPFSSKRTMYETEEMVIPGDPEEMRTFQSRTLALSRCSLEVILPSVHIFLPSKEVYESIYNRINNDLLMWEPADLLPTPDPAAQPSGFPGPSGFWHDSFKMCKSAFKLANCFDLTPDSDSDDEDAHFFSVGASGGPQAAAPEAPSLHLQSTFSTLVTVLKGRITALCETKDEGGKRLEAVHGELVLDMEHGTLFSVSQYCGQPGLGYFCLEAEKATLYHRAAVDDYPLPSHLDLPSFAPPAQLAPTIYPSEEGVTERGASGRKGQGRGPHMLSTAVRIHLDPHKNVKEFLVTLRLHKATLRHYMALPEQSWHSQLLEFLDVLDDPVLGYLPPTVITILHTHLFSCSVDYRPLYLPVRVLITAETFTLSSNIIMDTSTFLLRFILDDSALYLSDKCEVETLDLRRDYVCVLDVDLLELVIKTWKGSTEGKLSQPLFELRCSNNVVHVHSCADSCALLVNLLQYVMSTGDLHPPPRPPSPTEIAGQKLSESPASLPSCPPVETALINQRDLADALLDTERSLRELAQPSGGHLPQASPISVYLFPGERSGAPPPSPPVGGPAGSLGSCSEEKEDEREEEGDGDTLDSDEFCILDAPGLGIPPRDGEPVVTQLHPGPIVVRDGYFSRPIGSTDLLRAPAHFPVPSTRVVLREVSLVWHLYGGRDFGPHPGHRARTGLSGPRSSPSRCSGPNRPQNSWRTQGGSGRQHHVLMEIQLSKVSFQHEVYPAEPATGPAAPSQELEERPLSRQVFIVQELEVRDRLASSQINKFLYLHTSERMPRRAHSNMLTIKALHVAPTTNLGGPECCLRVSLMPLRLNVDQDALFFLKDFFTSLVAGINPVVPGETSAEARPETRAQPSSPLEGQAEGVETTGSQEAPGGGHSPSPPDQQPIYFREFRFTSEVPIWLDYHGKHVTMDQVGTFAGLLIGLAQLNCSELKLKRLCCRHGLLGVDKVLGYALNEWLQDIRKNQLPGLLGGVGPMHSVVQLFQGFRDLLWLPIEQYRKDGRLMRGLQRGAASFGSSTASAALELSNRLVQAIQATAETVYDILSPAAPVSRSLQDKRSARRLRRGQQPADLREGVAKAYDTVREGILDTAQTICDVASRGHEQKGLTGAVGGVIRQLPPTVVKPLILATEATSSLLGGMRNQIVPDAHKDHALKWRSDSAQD

B1: purified Flag-ANKFY1 full-length protein (natural protein, human, UniProt Q9P2R3 1-1169, looked up)
chain: MAEEEVAKLEKHLMLLRQEYVKLQKKLAETEKRCALLAAQANKESSSESFISRLLAIVADLYEQEQYSDLKIKVGDRHISAHKFVLAARSDSWSLANLSSTKELDLSDANPEVTMTMLRWIYTDELEFREDDVFLTELMKLANRFQLQLLRERCEKGVMSLVNVRNCIRFYQTAEELNASTLMNYCAEIIASHWDDLRKEDFSSMSAQLLYKMIKSKTEYPLHKAIKVEREDVVFLYLIEMDSQLPGKLNEADHNGDLALDLALSRRLESIATTLVSHKADVDMVDKSGWSLLHKGIQRGDLFAATFLIKNGAFVNAATLGAQETPLHLVALYSSKKHSADVMSEMAQIAEALLQAGANPNMQDSKGRTPLHVSIMAGNEYVFSQLLQCKQLDLELKDHEGSTALWLAVQHITVSSDQSVNPFEDVPVVNGTSFDENSFAARLIQRGSHTDAPDTATGNCLLQRAAGAGNEAAALFLATNGAHVNHRNKWGETPLHTACRHGLANLTAELLQQGANPNLQTEEALPLPKEAASLTSLADSVHLQTPLHMAIAYNHPDVVSVILEQKANALHATNNLQIIPDFSLKDSRDQTVLGLALWTGMHTIAAQLLGSGAAINDTMSDGQTLLHMAIQRQDSKSALFLLEHQADINVRTQDGETALQLAIRNQLPLVVDAICTRGADMSVPDEKGNPPLWLALANNLEDIASTLVRHGCDATCWGPGPGGCLQTLLHRAIDENNEPTACFLIRSGCDVNSPRQPGANGEGEEEARDGQTPLHLAASWGLEETVQCLLEFGANVNAQDAEGRTPIHVAISSQHGVIIQLLVSHPDIHLNVRDRQGLTPFACAMTFKNNKSAEAILKRESGAAEQVDNKGRNFLHVAVQNSDIESVLFLISVHANVNSRVQDASKLTPLHLAVQAGSEIIVRNLLLAGAKVNELTKHRQTALHLAAQQDLPTICSVLLENGVDFAAVDENGNNALHLAVMHGRLNNIRVLLTECTVDAEAFNLRGQSPLHILGQYGKENAAAIFDLFLECMPGYPLDKPDADGSTVLLLAYMKGNANLCRAIVRSGARLGVNNNQGVNIFNYQVATKQLLFRLLDMLSKEPPWCDGSYCYECTARFGVTTRKHHCRHCGRLLCHKCSTKEIPIIKFDLNKPVRVCNICFDVLTLGGVS
notes: ANKFY1, human, full length (ANKFY1-FL), N-terminal Flag tag, pCDNA4-TO vector; also called ANKFY1-FL; ANKFY1-Flag; source: 293S cells, purified (anti-Flag M2 resin, eluted with 3x Flag peptide); not shown: Flag, N-terminal, kept
As to B1, the binding result is “binds”.
